The source of these data is publication PMC11964265, “Eating the brain - A multidisciplinary study provides new insights into the mechanisms underlying the cytopathogenicity of Naegleria fowleri” (PLOS Pathogens, 2025).

One may read the stoichiometry N as a count of units in the complex or per binding partner.

This data set concerns the molecule itself. In words: SEC; analytical size-exclusion chromatography, Superdex 200 Increase 10/300 GL, 20 mM Tris-HCl, 150 mM NaCl, pH 7.5; mass from calibration with Gel Filtration Standard (Bio-Rad). A general note: SEC sorts molecules by how far they enter the pores of the column.

B1: Naegleria fowleri lysozyme (recombinant) (natural protein)
chain: MSSYYTKEQFFRALHQVESKGQLNPPDGDKGRAIGPLQIWEVYWKDSGIQESYQSVRKFEIAKKCVNRFMKRYAENEWGPTMTIDQVEKCARIHNGGPRGHLKPETDDYWERFKEALENLDDEEVVVVEENDNNDDDQDDNEEESKDHRELLKIGMSGADVEEIQQQLADLGYDLGSYGADGKFGKATQQAVMKFQQDHDLAVDGIVGKETRKALNLEKGEDDQEQQEVADDQQEDDDEQQQQQNKDQPQEQDEEETTNEVKEEEQNDDEHEDPQEEEEQQQEDEQEDPQEEQQEDEDQQEDNDEENDQQQEDDDDQEQQQEEEEQEDPQEEEEQQNDDDDQQDDMEEQQDGDDDNDDDDA
notes: Cloned into pET42b with NdeI/XhoI sites in the primers; Pentamer by analytical SEC only; also called Nf lysozyme; source: E. coli BL21(DE3), purified (Ni-NTA agarose, native conditions)
As to B1, the “stoichiometry N” value was 5.
